Laboratory results as given in article PMC6459835, “The RNA binding activity of the first identified trypanosome protein with Z-DNA-binding domains”.

What was measured:
RBP7910 WT [1] = biological target: T1, RBP7910 WT (Trypanosoma brucei, UniProt Q38AH3 9-189); assay: competition; settings: RBB50: 20 mM Tris-HCl pH 7.6, 50 mM KCl, 5 mM MgCl2, 100 mg/mL BSA (so in the source), 10% glycerol, 1 mM DTT, plus 100 mM KCl and 20 U RNasin; 20 ul, 30 min, RT …
T1 sequence: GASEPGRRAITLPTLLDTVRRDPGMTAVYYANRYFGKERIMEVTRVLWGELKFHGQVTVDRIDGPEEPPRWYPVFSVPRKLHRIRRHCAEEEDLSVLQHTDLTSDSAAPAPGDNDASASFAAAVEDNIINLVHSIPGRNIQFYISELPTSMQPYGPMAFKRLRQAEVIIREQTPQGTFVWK

RBP7910 WT [2] = biological target: T1, RBP7910 WT; assay: EMSA; settings: RBB50: 20 mM Tris-HCl pH 7.6, 50 mM KCl, 5 mM MgCl2, 100 mg/mL BSA (so in the source), 10% glycerol, 1 mM DTT, plus 100 mM KCl and 20 U RNasin, 20 ul, 30 min, RT …
[3] = biological target: T2, RBP7910 WT (Trypanosoma brucei) (UniProt Q38AH3); assay: competition; settings: RBB50: 20 mM Tris-HCl pH 7.6, 50 mM KCl, 5 mM MgCl2, 100 mg/mL BSA (so in the source), 10% glycerol, 1 mM DTT, plus 100 mM KCl and 20 U RNasin, 20 ul, 30 min, RT …
T2 sequence: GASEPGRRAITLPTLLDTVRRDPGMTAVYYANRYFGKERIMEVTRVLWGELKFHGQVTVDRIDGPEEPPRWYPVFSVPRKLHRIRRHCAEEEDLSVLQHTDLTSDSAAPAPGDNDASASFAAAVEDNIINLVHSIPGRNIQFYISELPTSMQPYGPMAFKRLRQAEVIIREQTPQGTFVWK

RBP7910 WT [4] = biological target: T1, RBP7910 WT; assay: EMSA; 1 nM labeled RNA, protein titration; specificity confirmed with unlabeled poly AU; RBB50: 20 mM Tris-HCl pH 7.6, 50 mM KCl, 5 mM MgCl2, 100 mg/mL BSA (so in the source), 10% glycerol, 1 mM DTT, plus 100 mM KCl and 20 U RNasin; 20 ul, 30 min, RT; native 10% TBE gel at 4 C; settings: protein: recombinant; tags: N-terminal 6xHis (pET30-a); label: 32P
RBP7910 WT [5] = biological target: T1, RBP7910 WT; assay: EMSA; 95% CI 1.25-1.97; RBB50: 20 mM Tris-HCl pH 7.6, 50 mM KCl, 5 mM MgCl2, 100 mg/mL BSA (so in the source), 10% glycerol, 1 mM DTT, plus 100 mM KCl and 20 U RNasin; 20 ul, 30 min, RT; native 10% TBE gel at 4 C; settings: protein: recombinant; tags: N-terminal 6xHis (pET30-a); label: 32P (UTP body or 3' pCp)
RBP7910 WT [6] = biological target: T1, RBP7910 WT; assay: competition; vs labeled gA6[14]; RBB50: 20 mM Tris-HCl pH 7.6, 50 mM KCl, 5 mM MgCl2, 100 mg/mL BSA (so in the source), 10% glycerol, 1 mM DTT, plus 100 mM KCl and 20 U RNasin; 20 ul, 30 min, RT; native 10% TBE gel at 4 C; settings: protein: recombinant; tags: N-terminal 6xHis (pET30-a); label: unlabeled; one predicted stem-loop, 3' oligo(U) tail

CYb pre-edited mRNA gave a binding signal (% reduction of bound labeled gA6[14]) (RBP7910 WT [1]) of 50 and a Kd (RBP7910 WT [2]; 95% CI 2.09-3.66) of 2.78 nM.

Work on “GGGAUUAAAAGACAAUGUGAAUUUCUUAAGGUAAUAAAGGGAAUAAUUUUUUUUUUUUUUUU [natural CYb gRNA (gCYb[558]) with U-tail]” yielded a binding signal (% reduction of bound labeled gA6[14]) [3] of 50.

With “GGGGGGACUGACAUUAAAAGAAAUGUGAAUUUUUCUCCGCUUUU [42-mer CYb gRNA (gCYb[558] USD-2A-42nt), no U-tail]” the binding signal ([3]; scale: fold less efficient competitor than natural gCYb) was 10.

gA6[14] (delta16G) gRNA with U-tail showed a Kd (RBP7910 WT [2]; 95% CI 0.18-0.27) of 0.21 nM.

poly U RNA showed a binding signal (% reduction of bound labeled poly AU) (RBP7910 WT [1]) of 50.

B1: poly AU RNA (ssRNA)
RNA: GGGAUUCUUUUCGAGUCUCUUUUAUUUAUUUAUUUAUUUAUUUUUUCUCUCUUAUU
B1: binds (RBP7910 WT [4]).

B2: CYb edited mRNA (ssRNA)
RNA: GGGAAAUAUGUUUUUUCGUGUUAGAUUUUUGUUAUUUUUUUUAUUAUUUAGAAAUUUAUGUUGUCUUUUUA
B2 gave a Kd (RBP7910 WT [5]) of 1.57 ± 0.06 nM.

B3: uridylated non-guide RNA (49 nt) (structured_RNA)
RNA: GGGUACCAGAUACAUACUAAGGAAUUCGAUAUCACUAUUUUUUUUUUUUUU
With B3 the binding signal (RBP7910 WT [6]) was 10 fold less efficient competitor than gA6[14].
